# Numbered stars: 1 amine (or outer) side, 2 acyl side, 3 side chain; on linkers, the order of the positions; unused ones are H or OH. Bridge positions count the residues as written; N and C are the ends. Ends that are not written are not given here. * marks the point of attachment. Ttds = 1,13-diamino-4,7,10-trioxatridecan-succinamic acid, NCCCOCCOCCOCCCNC(=O)CCC(=O)*; tMeBn(DOTA-AET) = Cys-Cys bridge (thioethers) carrying DOTA-AET; tMeBn(DOTA-PP) = Cys-Cys bridge (thioethers) carrying DOTA-PP; DOTA = O=C(O)CN1CCN(CC(=O)O)CCN(CC(=O)*)CCN(CC(=O)O)CC1; mXylylene = c1cc(C[*:1])cc(C[*:2])c1; 2Lut = Cys-Cys bridge (thioethers); 3Lut = Cys-Cys bridge (thioethers); Pentanesulfonyl = CCCCCS(=O)(=O)*; Hexanoyl = CCCCCC(=O)*
# Target: T1, human fibroblast activation protein (FAP) on FAP-expressing human WI-38 fibroblasts (human)
# T1 sequence (chain, as listed by the source): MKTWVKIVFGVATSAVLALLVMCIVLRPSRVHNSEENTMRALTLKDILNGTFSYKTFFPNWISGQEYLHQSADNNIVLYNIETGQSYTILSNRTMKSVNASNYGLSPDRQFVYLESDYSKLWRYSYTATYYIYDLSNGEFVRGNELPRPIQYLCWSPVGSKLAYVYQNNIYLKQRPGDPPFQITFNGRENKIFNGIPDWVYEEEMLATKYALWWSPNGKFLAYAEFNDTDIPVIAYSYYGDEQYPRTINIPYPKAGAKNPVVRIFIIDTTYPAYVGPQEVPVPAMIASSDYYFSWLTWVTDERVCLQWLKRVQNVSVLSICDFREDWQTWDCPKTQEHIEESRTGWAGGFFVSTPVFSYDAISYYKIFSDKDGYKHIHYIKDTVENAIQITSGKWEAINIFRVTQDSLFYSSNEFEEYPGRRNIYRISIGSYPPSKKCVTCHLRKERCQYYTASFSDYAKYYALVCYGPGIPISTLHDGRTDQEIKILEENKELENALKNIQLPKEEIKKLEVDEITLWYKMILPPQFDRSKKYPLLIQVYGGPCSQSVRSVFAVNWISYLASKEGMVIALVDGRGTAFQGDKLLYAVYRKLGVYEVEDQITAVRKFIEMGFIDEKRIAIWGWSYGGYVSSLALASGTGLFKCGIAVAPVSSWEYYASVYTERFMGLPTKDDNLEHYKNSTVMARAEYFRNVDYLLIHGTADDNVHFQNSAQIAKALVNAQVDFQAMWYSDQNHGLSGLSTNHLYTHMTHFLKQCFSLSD
# Experiment: competition FACS, WI-38 cells, vs Cy5-labeled compound; D: pIC50 ≤6.0
row,pIC50 Category (FACS),Binder
1,≤ 6 pIC50,Hexanoyl-CPPAEFC-NH2 (linker 1-7 via mXylylene; SMILES CCCCCC(=O)N[C@H]1CSCc2cccc(c2)CSC[C@@H](C(N)=O)NC(=O)[C@H](Cc2ccccc2)NC(=O)[C@H](CCC(=O)O)NC(=O)[C@H](C)NC(=O)[C@@H]2CCCN2C(=O)[C@@H]2CCCN2C1=O) [Hex-[Cys(3MeBn)-Pro-Pro-Ala-Glu-Phe-Cys]-NH2]
2,≤ 6 pIC50,Hexanoyl-CPPTAFC-NH2 (linker 1-7 via mXylylene; SMILES CCCCCC(=O)N[C@H]1CSCc2cccc(c2)CSC[C@@H](C(N)=O)NC(=O)[C@H](Cc2ccccc2)NC(=O)[C@H](C)NC(=O)[C@H]([C@@H](C)O)NC(=O)[C@@H]2CCCN2C(=O)[C@@H]2CCCN2C1=O) [Hex-[Cys(3MeBn)-Pro-Pro-Thr-Ala-Phe-Cys]-NH2]

# Target: T1, human fibroblast activation protein …
# Experiment: competition FACS, WI-38 cells, vs Cy5-labeled compound; A: pIC50 >8.0
row,Binder,pIC50 Category (FACS)
1,Pentanesulfonyl-CPPTQFCD-NH2 (linker 1-7 via mXylylene; SMILES CCCCCS(=O)(=O)N[C@H]1CSCc2cccc(c2)CSC[C@@H](C(=O)N[C@@H](CC(=O)O)C(N)=O)NC(=O)[C@H](Cc2ccccc2)NC(=O)[C@H](CCC(N)=O)NC(=O)[C@H]([C@@H](C)O)NC(=O)[C@@H]2CCCN2C(=O)[C@@H]2CCCN2C1=O) [Pentyl-SO2-[Cys(3MeBn)-Pro-Pro-Thr-Gln-Phe-Cys]-Asp-NH2],> 8 pIC50
2,Hexanoyl-CPPTEFC-NH2 (linker 1-7 via tMeBn(DOTA-AET)) [Hex-[Cys(tMeBn(DOTA-AET))-Pro-Pro-Thr-Glu-Phe-Cys]-NH2],> 8 pIC50
3,Hexanoyl-CPPTQFCD-NH2 (linker 1-7 via 2Lut) [Hex-[Cys(2Lut)-Pro-Pro-Thr-Gln-Phe-Cys]-Asp-NH2],> 8 pIC50
4,Hexanoyl-CPPTQFCD-NH2 (linker 1-7 via tMeBn(GaDOTA-PP)) [Hex-[Cys(tMeBn(GaDOTA-PP))-Pro-Pro-Thr-Gln-Phe-Cys]-Asp-NH2],> 8 pIC50
5,Pentanesulfonyl-CPPTEFC-OH (linker 1-7 via tMeBn(DOTA-AET)) [Pentyl-SO2-[Cys(tMeBn(DOTA-AET))-Pro-Pro-Thr-Glu-Phe-Cys]-OH],> 8 pIC50
6,Hexanoyl-CPPTQFCD-NH2 (linker 1-7 via tMeBn(LuDOTA-PP); also: Lu-DOTA complex) [Hex-[Cys(tMeBn(LuDOTA-PP))-Pro-Pro-Thr-Gln-Phe-Cys]-Asp-NH2],> 8 pIC50
7,Hexanoyl-CPPTQFCD-NH2 (linker 1-7 via tMeBn(EuDOTA-PP); also: Eu-DOTA complex) [Hex-[Cys(tMeBn(EuDOTA-PP))-Pro-Pro-Thr-Gln-Phe-Cys]-Asp-NH2],> 8 pIC50
8,Hexanoyl-CPPTQFCD (linker 1-7 via mXylylene; not fully specified (C-terminus); printed as Hex-[Cys(3MeBn)-Pro-Pro-Thr-Gln-Phe-Cys]-Asp-Ttds-Ape(DOTA)) [Hex-[Cys(3MeBn)-Pro-Pro-Thr-Gln-Phe-Cys]-Asp-Ttds-Ape-NH-DOTA'],> 8 pIC50
9,Hexanoyl-CPPTQFCD-NH2 (linker 1-7 via tMeBn(InDOTA-PP); also: In-DOTA complex) [Hex-[Cys(tMeBn(InDOTA-PP))-Pro-Pro-Thr-Gln-Phe-Cys]-Asp-NH2],> 8 pIC50
10,CPPTQFCD (N-terminal Hex (hexanoyl); Cys1-Cys7 bridged by tMeBn(DOTA-AET) (thioethers); D-Asp8 (asp); C-terminal amide) [Hex-[Cys(tMeBn(DOTA-AET))-Pro-Pro-Thr-Gln-Phe-Cys]-asp-NH2],> 8 pIC50
11,Hexanoyl-CPPTQFCD-OH (linker 1-7 via tMeBn(DOTA-AET)) [Hex-[Cys(tMeBn(DOTA-AET))-Pro-Pro-Thr-Gln-Phe-Cys]-Asp-OH],> 8 pIC50

# Further lines, results first:
row,pIC50 Category (FACS),Binder
1,> 8 pIC50,Hexanoyl-CPPTQFCS-OH (linker 1-7 via tMeBn(DOTA-AET)) [Hex-[Cys(tMeBn(DOTA-AET))-Pro-Pro-Thr-Gln-Phe-Cys]-Ser-OH]
2,> 8 pIC50,Hexanoyl-CPPTEFCDHFRD-NH2 (linker 1-7 via mXylylene; SMILES CCCCCC(=O)N[C@H]1CSCc2cccc(c2)CSC[C@@H](C(=O)N[C@@H](CC(=O)O)C(=O)N[C@@H](Cc2c[nH]cn2)C(=O)N[C@@H](Cc2ccccc2)C(=O)N[C@@H](CCCNC(=N)N)C(=O)N[C@@H](CC(=O)O)C(N)=O)NC(=O)[C@H](Cc2ccccc2)NC(=O)[C@H](CCC(=O)O)NC(=O)[C@H]([C@@H](C)O)NC(=O)[C@@H]2CCCN2C(=O)[C@@H]2CCCN2C1=O) [Hex-[Cys(3MeBn)-Pro-Pro-Thr-Glu-Phe-Cys]-Asp-His-Phe-Arg-Asp-NH2]
3,> 8 pIC50,Hexanoyl-CPPTQFCD-NH2 (linker 1-7 via tMeBn(DOTA-AET)) [Hex-[Cys(tMeBn(DOTA-AET))-Pro-Pro-Thr-Gln-Phe-Cys]-Asp-NH2]
4,> 8 pIC50,{DOTA-Ttds}-LCPPTEFCDHFRD-NH2 (linker 2-8 via mXylylene) [DOTA-Ttds-Leu-[Cys(3MeBn)-Pro-Pro-Thr-Glu-Phe-Cys]-Asp-His-Phe-Arg-Asp-NH2]
5,> 8 pIC50,Hexanoyl-CPPTQFCD-NH2 (linker 1-7 via mXylylene; SMILES CCCCCC(=O)N[C@H]1CSCc2cccc(c2)CSC[C@@H](C(=O)N[C@@H](CC(=O)O)C(N)=O)NC(=O)[C@H](Cc2ccccc2)NC(=O)[C@H](CCC(N)=O)NC(=O)[C@H]([C@@H](C)O)NC(=O)[C@@H]2CCCN2C(=O)[C@@H]2CCCN2C1=O) [Hex-[Cys(3MeBn)-Pro-Pro-Thr-Gln-Phe-Cys]-Asp-NH2]
6,> 8 pIC50,Hexanoyl-CPPTQFCD (linker 1-7 via mXylylene; not fully specified (C-terminus); printed as Hex-[Cys(3MeBn)-Pro-Pro-Thr-Gln-Phe-Cys]-Asp-Ape(DOTA)) [Hex-[Cys(3MeBn)-Pro-Pro-Thr-Gln-Phe-Cys]-Asp-Ape-NH-DOTA']
7,> 8 pIC50,Pentanesulfonyl-CPPTQFCD-NH2 (linker 1-7 via tMeBn(DOTA-PP)) [Pentyl-SO2-[Cys(tMeBn(DOTA-PP))-Pro-Pro-Thr-Gln-Phe-Cys]-Asp-NH2]
8,> 8 pIC50,Hexanoyl-CPPTQFCD-NH2 (linker 1-7 via tMeBn(DOTA-PP)) [Hex-[Cys(tMeBn(DOTA-PP))-Pro-Pro-Thr-Gln-Phe-Cys]-Asp-NH2]
9,> 8 pIC50,Hexanoyl-CPPTQFCD-NH2 (linker 1-7 via 3Lut) [Hex-[Cys(3Lut)-Pro-Pro-Thr-Gln-Phe-Cys]-Asp-NH2]
10,> 8 pIC50,Ac-CPPTEFCDHFRD-NH2 (linker 1-7 via mXylylene; SMILES CC(=O)N[C@H]1CSCc2cccc(c2)CSC[C@@H](C(=O)N[C@@H](CC(=O)O)C(=O)N[C@@H](Cc2c[nH]cn2)C(=O)N[C@@H](Cc2ccccc2)C(=O)N[C@@H](CCCNC(=N)N)C(=O)N[C@@H](CC(=O)O)C(N)=O)NC(=O)[C@H](Cc2ccccc2)NC(=O)[C@H](CCC(=O)O)NC(=O)[C@H]([C@@H](C)O)NC(=O)[C@@H]2CCCN2C(=O)[C@@H]2CCCN2C1=O) [Ac-[Cys(3MeBn)-Pro-Pro-Thr-Glu-Phe-Cys]-Asp-His-Phe-Arg-Asp-NH2]

# Source: patent US20220315554A1 (3B PHARMACEUTICALS GMBH, published 2022)
